Reference: patent US20250136721A1 (GlaxoSmithKline, published 2025)
Where two headings read alike, the source gives them in different places.

Key:
[1] = molecular target: pre-existing anti-VH ADA in human serum; assay: ADA confirmation assay (MSD): 10 ug/mL test material against labelled DOM1H-131-206, mean of 10 sera
[2] = molecular target: T1, Recombinant human TNFR1-Fc (human, UniProt P19438 30-211, limits assumed); assay: ELISA: dAb on coated recombinant human TNFR1-Fc, anti-Vh detection
T1 construct: bought reagent; also called hTNFR1:Fc; not shown: Fc part; not described
T1 sequence (looked up): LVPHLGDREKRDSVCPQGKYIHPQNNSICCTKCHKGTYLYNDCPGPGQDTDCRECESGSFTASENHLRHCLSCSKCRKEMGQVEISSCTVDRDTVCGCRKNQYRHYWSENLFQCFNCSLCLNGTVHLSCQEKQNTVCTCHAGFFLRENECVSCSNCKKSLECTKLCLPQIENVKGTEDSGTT

[3] = molecular target: pre-existing anti-VH ADA in human serum; assay: ADA confirmation assay (MSD): 10 ug/mL test material against labelled DOM1H-131-206; share of 10 ADA-positive sera with binding
[4] = molecular target: pre-existing anti-VH ADA in human serum; assay: ADA confirmation assay (MSD): 10 ug/mL test material against labelled DOM1H-131-206, mean of 10 sera; remark: listed apart in the source
[5] = molecular target: T1, Recombinant human TNFR1-Fc; assay: ELISA: dAb on coated recombinant human TNFR1-Fc
[6] = molecular target: pre-existing anti-VH ADA in human serum; assay: ADA confirmation assay (MSD): 10 ug/mL test material against labelled DOM1H-131-206; share of 10 ADA-positive sera with binding; remark: listed apart in the source

B1: DOM1H-131-206 A84T (other, name in Kabat numbering)
VH: EVQLLESGGGLVQPGGSLRLSCAASGFTFAHETMVWVRQAPGKGLEWVSHIPPDGQDPFYADSVKGRFTISRDNSKNTLYLQMNSLRTEDTAVYHCALLPKRGPWFDYWGQGTLVTVSS
notes: VH dAb variant
Mean % inhibition of signal in confirmation assay [1]: 91% | EC50 [2]: 0.79 nM | % subjects with ADA binding (10 subjects) (% of subjects) [3]: 100

B2: DOM1H-131-206 C-terminal ASTKGP (other)
VH: EVQLLESGGGLVQPGGSLRLSCAASGFTFAHETMVWVRQAPGKGLEWVSHIPPDGQDPFYADSVKGRFTISRDNSKNTLYLQMNSLRAEDTAVYHCALLPKRGPWFDYWGQGTLVTVSSASTKGP
notes: VH dAb variant
Mean % inhibition of signal in confirmation assay [4]: 42.6% | fold change of EC50 against the parental dAb DOM1H-131-206 [5]: ~5 fold | % subjects with ADA binding (10 subjects) (% of subjects) [6]: 60
